Data on one molecule can be found in PMC13078783, “Kinesin-1 conformational dynamics are controlled by a cargo-sensitive TPR switch” (eLife, 2026).

No end group written: not given here.

Data set [1] deals with the molecule itself. Description: AUC; sedimentation equilibrium, 20 °C, PBS, 100 μM total peptide, 44–60 krpm, single ideal species model.
In data set [2] the target is T1, KLC1 TPR domain.
T1 construct: also called isolated TPR domains; KLC-1 TPR protein; source: E. coli BL21(DE3), purified (His-Trap, SEC)
Nature of the data set: fluorescence polarisation; TAMRA-conjugated peptide at 150 nM, increasing KLC1/2 TPR protein (typically 0–25 μM); 25 mM HEPES pH 7.4, 5 mM β-mercaptoethanol, 150 mM NaCl; room temperature; one-site specific binding model. Particulars: both partners purified. For orientation: Polarisation of emitted light reports the rotation of a fluorescent probe.

The target in data set [3] is T2, KLC2 TPR domain.
T2 construct: kinesin light chain 2 (KLC2), TPR domain, residues A196-K480, in pET28His-Thrombin; source: E. coli BL21(DE3), purified (His-Trap, SEC)
The data set is described as above. The settings on record: both partners purified.

For orientation: stoichiometry N means the number of molecules, sites or subunits per partner or assembly. What is called Kd is the equilibrium constant for the complex coming apart. In the case of ENEALKDEVKELLQALEELAVNYDQLSQ-NH2 (also: TAMRA-conjugated, position not given here) [Eng-TDS], the “stoichiometry N” value in data set [1] is 2. Besides, the figures for the Kd in data set [2] and in data set [3] were about 25 µM and 2.7 µM, respectively.
